In patent US9932621B2, “Modulators for Sirt5 and assays for screening same” (CORNELL UNIVERSITY, priority 2010, dated 2018):
Entries after “also recorded” stand apart in the source; their conditions may differ. *1 amine or outer side, *2 acyl side, *3 side chain or, on linkers, in order; H or OH if unused. Where no end group is shown, it is not given here. The star is where a group is joined. Malonyl = O=C(CC(=O)[*:2])[*:1]; AMC = Cc1cc(=O)oc2cc(N*)ccc12; Suc = O=C(CCC(=O)[*:2])[*:1]

Tests used:
[1] = molecular target: T1, Sirt2 (Homo sapiens, UniProt Q8IXJ6); assay: Secondary screening using Sirt2 and ISGASE(AcK)-AMC fluorogenic assay; format: biochemical; settings: inhibitor 30 μM, ISGASE(AcK)-AMC 0.3 mM, Sirt2 1 μM, FIG. 15
T1 construct: made in house
T1 sequence (Q8IXJ6 1-389): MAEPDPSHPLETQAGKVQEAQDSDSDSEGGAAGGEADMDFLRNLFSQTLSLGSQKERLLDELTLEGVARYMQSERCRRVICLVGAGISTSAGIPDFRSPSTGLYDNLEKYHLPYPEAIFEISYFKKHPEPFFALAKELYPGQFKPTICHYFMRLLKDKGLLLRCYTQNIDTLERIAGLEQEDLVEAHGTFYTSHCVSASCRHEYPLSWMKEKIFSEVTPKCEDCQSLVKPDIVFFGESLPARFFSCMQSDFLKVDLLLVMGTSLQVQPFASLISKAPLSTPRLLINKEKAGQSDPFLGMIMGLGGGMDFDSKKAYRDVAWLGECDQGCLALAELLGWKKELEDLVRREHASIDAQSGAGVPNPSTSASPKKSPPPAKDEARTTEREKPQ
Method: SirT2 (1 μM) was incubated with ISGASE(AcK)-AMC (SEQ ID NO:13) peptide (0.3 mM), inhibitors (30 μM), NAD (0.5 mM) in Tris-HCl buffer (pH 7.4, 20 mM) containing dithiothreitol (DTT, 1 mM) in a 60 μL reaction for 4 hours at 37° C. Then trypsin (1 μg) and CaCl2 (1 mM) were added and the reaction were incubated for 3 hours at 37° C. The reactions were diluted with 50 μL water. The mixture (100 μL) was transferred to 96 well plate and the fluorescence was recorded by BIO-TEK® Synergy HT (Optics Position: Top, Sensitivity: 50, Excitation at the wavelength of 360 nm and Emission at the wavelength of 460 nm).

[2] = molecular target: T2, Sirt5 (Homo sapiens, UniProt Q9NXA8); assay: Screening for Sirt5 inhibitors with ISGASE(SuK)-AMC in the fluorogenic assay; format: biochemical; settings: compound 30 μM, ISGASE(SuK)-AMC 0.3 mM, Sirt5 1 μM, FIG. 13
T2 construct: made in house
T2 sequence (Q9NXA8 37-310): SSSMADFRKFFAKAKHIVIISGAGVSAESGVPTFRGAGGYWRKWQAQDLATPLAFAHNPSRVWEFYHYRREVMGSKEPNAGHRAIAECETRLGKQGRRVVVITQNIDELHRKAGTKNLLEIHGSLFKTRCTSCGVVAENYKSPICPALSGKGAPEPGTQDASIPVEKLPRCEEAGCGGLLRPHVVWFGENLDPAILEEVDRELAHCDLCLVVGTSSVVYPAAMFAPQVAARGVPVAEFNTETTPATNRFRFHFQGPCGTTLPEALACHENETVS
Method: SirT5 (1 μM) was incubated with ISGASE(SuK)-AMC (SEQ ID NO:11) peptide (0.3 mM), NAD (0.5 mM) in Tris-HCl buffer (pH 7.4, 20 mM) with DTT (1 mM) in 60 μL reactions for 4 hours at 37° C. Then trypsin (1 μg) and CaCl2 (1 mM) were added and the reactions were incubated for 3 hours at 37° C. The reactions were the diluted with 50 μL water. The mixture (100 μL) was transferred to 96 well plate and the fluorescence was recorded by BIO-TEK® Synergy HT plate reader (Optics Position: Top, Sensitivity: 50, Excitation at the wavelength of 360 nm and Emission at the wavelength of 460 nm).
The procedure was the same as described above (Assaying Sirt5 activity on ISGASE(SuK)-AMC in the fluorogenic assay), except that different compounds (30 μM) were included in the reactions. In the desuccinylation step, Sirt5 was added last to initiate the desuccinylation reaction.

[3] = molecular target: T2, Sirt5; assay: Sirt5 deacetylation, demalonylation, desuccinylation kinetics on WW-tagged peptides by HPLC; format: biochemical; settings: peptides with two C-terminal tryptophan residues; for Km: read-out: Peptide Km
Method: (§1) For determination of kcat and Km, human Sirt1, Sirt2, Sirt3 and Sirt5 were measured by detecting the deacylated peptide from H3K9 acyl peptides using HPLC. Purified Sirtuin was incubated with 1.0 mM of NAD in 20 mM Tris-HCl buffer (pH 7.5) containing acyl peptides (0-750 μM) and 1 mM DTT in 60 μL reactions at 37° C. The reactions were stopped with 100 mM HCl and 160 mM acetic acid, analyzed by HPLC with a reverse phase C18 column (250×4.6 mm, 90 A, 10 μm, GraceVydac, Southborough, Mass.), with a linear gradient of 0% to 20% B for 10 min (1 mL/min). […] The kcat and Km values were obtained by curve-fitting the Vinitial/[E] versus [S] plot using KaleidaGraph. For Sirt5 R105M, the observed second order rate constant, kobs (rate/([Sirtuin][NAD])) was detected instead of kcat and Km because of the very weak deacylation activity. The experiments were done in duplicate.
(§2) For comparing the deacetylation, demalonylation and desuccinylation activities of Sirt5 on different peptide backbones (results shown in Table 2), histone H3, GDH and ACS2 peptides with two tryptophan residues at the C-terminal were used to allow better detection and quantification on HPLC. The determination of kcat and Km was carried out essentially the same as mentioned above with slight modifications. The reactions were quenched with 60 μL 10% TFA. The chromatography gradient was 0% to 50% B for 20 min (1 mL/min). The peptides were detected and quantified on the LC by the absorption at 280 nm.

[4] = molecular target: T2, Sirt5; assay: Sirt5-catalyzed desuccinylation of AMC-succinyl peptides monitored by HPLC; format: biochemical; settings: 2 hrs
Method: […] The reactions were stopped with 200 mM HCl and 320 mM acetic acid, analyzed by HPLC with a reverse phase C18 column (250×4.6 mm, 90 A, 10 μm, GraceVydac, Southborough, Mass.), with a linear gradient of 0% to 20% B for 10 min (1 mL/min).

[5] = substrate: C[C@H](NC(=O)[C@@H](NC(=O)[C@H](CCC(N)=O)NC(=O)[C@@H](N)CCCCN)[C@@H](C)O)C(=O)N[C@@H](CCCNC(=N)N)C(=O)N[C@@H](CCCCNC(=O)CC(=O)O)C(=O)N[C@@H](CO)C(=O)N[C@H](C(=O)NCC(=O)NCC(=O)N[C@@H](Cc1c[nH]c2ccccc12)C(=O)N[C@@H](Cc1c[nH]c2ccccc12)C(=O)O)[C@@H](C)O; assay: Sirt5 deacetylation, demalonylation, desuccinylation kinetics on WW-tagged peptides by HPLC; format: biochemical, human; settings: other: Sirt5, peptides with two C-terminal tryptophan residues, pH 7.5
Method: as §1, §2

[6] = substrate: C[C@H](NC(=O)[C@@H](NC(=O)[C@H](CCC(N)=O)NC(=O)[C@@H](N)CCCCN)[C@@H](C)O)C(=O)N[C@@H](CCCNC(=N)N)C(=O)N[C@@H](CCCCNC(=O)CCC(=O)O)C(=O)N[C@@H](CO)C(=O)N[C@H](C(=O)NCC(=O)NCC(=O)N[C@@H](Cc1c[nH]c2ccccc12)C(=O)N[C@@H](Cc1c[nH]c2ccccc12)C(=O)O)[C@@H](C)O; assay: as above; format: biochemical, human; settings: other: Sirt5, peptides with two C-terminal tryptophan residues, pH 7.5
Method: as §1, §2

Molecule: Cc1ccc(C(=O)Nc2ccc(S(=O)(=O)O)c3cc(S(=O)(=O)O)cc(S(=O)(=O)O)c23)cc1NC(=O)c1cccc(NC(=O)Nc2cccc(C(=O)Nc3cc(C(=O)Nc4ccc(S(=O)(=O)O)c5cc(S(=O)(=O)O)cc(S(=O)(=O)O)c45)ccc3C)c2)c1 [suramin]
- fluorescence produced by Sirt2 in fluorogenic assay [1]: decreased the fluorescence to almost background level
- inhibition of Sirt5 (fluorescence) in fluorogenic assay [2]: close to background level; also recorded: significant inhibition

Molecule: GDH K503 (498-509 + WW) acetyl peptide: GDH K503 acetyl peptide (498-509) with two C-terminal tryptophan residues (SGASEK(Ac)DIVHSGWW)
- Km [3]: > 750 µM

Molecule: GDH K503 (498-509 + WW) malonyl peptide: GDH K503 malonyl peptide (498-509) with two C-terminal tryptophan residues (SGASEK(Malonyl)DIVHSGWW)
- kcat [3]: 0.014 ± 0.001 s⁻¹
- Km [3]: 8.7 ± 1.3 µM

Molecule: GDH K503 (498-509 + WW) succinyl peptide: GDH K503 succinyl peptide (498-509) with two C-terminal tryptophan residues (SGASEK(Suc)DIVHSGWW)
- kcat [3]: 0.028 ± 0.002 s⁻¹
- Km [3]: 14 ± 4 µM

Molecule: ISGASE(SuK)-AMC (ISGASEK(Suc)-{AMC})
- succinyl peptide desuccinylated ([4]; 1 μM Sirt5, 300 μM peptide): 7.3%
- succinyl peptide desuccinylated ([4]; 2 μM Sirt5, 300 μM peptide): 17%
- succinyl peptide desuccinylated ([4]; 5 μM Sirt5, 300 μM peptide): 36%

Molecule: KQTARK(Ac)STGGWW [H3 K9 (4-13 + WW) acetyl peptide]
- Km [3]: > 750 µM

B1: Sirt5 (Homo sapiens) (protein)
chain: T2 sequence (Q9NXA8 37-310)
notes: made in house
- Km [5]: 6.1 ± 2.8 µM
- kcat [5]: 0.037 ± 0.003 s⁻¹
- kcat/Km [5]: 6100 M⁻¹ s⁻¹
- Km [6]: 5.8 ± 2.7 µM
- kcat [6]: 0.025 ± 0.002 s⁻¹
- kcat/Km [6]: 4300 M⁻¹ s⁻¹
